From the nanobody polyreactivity screen of Harvey et al. (2022)

Experiment: yeast display, Sf9 membrane polyspecificity reagent, FACS + sequencing; frameworks hold sequencing errors
Summary of the method: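 Nanobodies from a synthetic yeast display library (Saccharomyces cerevisiae BJ5465), induced 36–48 hours with galactose, were stained 1 hour at 4 °C with 10% biotinylated, detergent-solubilized Sf9 membrane reagent, enriched on streptavidin microbeads, then FACS-sorted. Anti-HA (expression) and streptavidin (reagent binding) fluorescence set low and high (top ~1%) gates. Polyreactivity labels come from the gate of origin. Genes were colony-PCR amplified, MiSeq 2 × 250 sequenced and filtered by CDR length.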
In the case of “QVQLVESGGGLVQAGGSLRLSCAASGSTIYVNAMGWYIQAPGKERELVAAIRSSAGNTTYADSVKGRFTISRDNAKNTVYLQMNSLKPEVTAVYYCAADSRPYLRDYWGQGTQVTVSS”, the “polyreactivity (PSR sort gate)” value is reported as “low polyreactivity”.
In the case of “QVQLVESGGGLVQAGGSLRLSCAASGSTLAKKAMGWYRQEPGKERELVAAISKNGGTTYYADSVKGRFTISRDNAKNTVYLQMNSLKPEDTAVYYCAVSIWGWFASGFDYWGQGTQVTVSS”, the “polyreactivity (PSR sort gate)” value is reported as “high polyreactivity”.
In the case of “QVQLVESGGGLVQAGGSLRLSCAASGSTLALYTMGWYRQAPGKERELVAAISKNGGRTYYADSVKGRFTISRDNAKNTVYLKMNSLKPEDTAVYYCAAASGSYRGYDYWGQGTQVTVSS”, the “polyreactivity (PSR sort gate)” value is reported as “high polyreactivity”.
With “QVQLVESGGGLVQAGGSLRLSCAASGSTLAPYAMGGYRQAPGKERELVASINWGGTTTYYADSVKGRFTISRDNAKNTVYLQMNSLIPEDTAVYYCAALGLRWGRSGYYYEYYYWGQGTQVTVSS” the “polyreactivity (PSR sort gate)” value was “high polyreactivity”.
In the case of “QVQLVESGGGLVQAGGSLRLSCAASGSTLAQYAMGWYRQAPGKETELVADISWSGGSTYYADSVKGRFTISRDNAKNTVYLQMNSLKPDDTAVYYCNAYAFDSVREEDYWGQGTQGTVSS”, the “polyreactivity (PSR sort gate)” value is reported as “low polyreactivity”.
With “QVQLVESGGGLVQAGGSLRLSCAASGSTLATYTMGWYRQAPGKERELVAAISFGGSTYYADSVKGRFTISRDNAKNTVYLQMNSLKPEDTAVYYCAVYGDSYWGAYYYSDGYWGQGSQVTVSS” the “polyreactivity (PSR sort gate)” value was “low polyreactivity”.
With “QVQLVESGGGLVQAGGSLRLSCAASGSTLAVYAKGWSRQAPGKERELVAVIDRGGSTYYADSVKGRFTISRDNAKNTVYLQLNCLKPEDTAVYFCNARRVKGYGYWGQGTQVTVSS” the “polyreactivity (PSR sort gate)” value was “high polyreactivity”.
For “QVQLVESGGGLVQAGGSLRLSCAASGSTLDIYAMGWYRQAPGKERELVAAITSGGSTNYADSVKGRFTISRDNAKTTVYLQLNSLKPEDTAVYSCNARYFRGYDYWGQGTQVSVSS”, the “polyreactivity (PSR sort gate)” value was “high polyreactivity”.
For “QVQLVESGGGLVQAGGSLRLSCAASGSTLDVYAMGWYRQAPGKERELVAAISWSVGSTYYADSVKGRFKISRDNAKNTVYLQMNSLKPEDTAVYYCAAEPYEYAYYGYDYWGQGTQVTVSS”, the “polyreactivity (PSR sort gate)” value was “high polyreactivity”.
For “QVQLVESGGGLVQAGGSLRLSCAASGSTLDVYDMGWYRQAPGKEREFVATISFSVGSTDYADSVKGRFTISRDNAKNTVYLQMNSLKPEDTAVYYCAADVSEWSNQYFDSYLRMDYWGQGTQVTVSS”, the “polyreactivity (PSR sort gate)” value was “low polyreactivity”.
For “QVQLVESGGGLVQAGGSLRLSCAASGSTLESYAMGWYRQAAGKERELVAAISKSGGRTYYADSVKGRFTISRDNAKNTVYLQMNSLKPEDTAVYYCAADSCTHLTYYWGQGTQVTVSS”, the “polyreactivity (PSR sort gate)” value was “high polyreactivity”.
For “QVQLVESGGGLVQAGGSLRLSCAASGSTLFAYAMGWYRQAPGKERELVAAITSGASTNCADSVKGRFTISRDNAKNTVYLQMNSLKPEDTAVYYCAKDVSGTNPDYDYWGQGTQVTVSS”, the “polyreactivity (PSR sort gate)” value was “low polyreactivity”.
In the case of “QVQLVESGGGLVQAGGSLRLSCAASGSTLFGYAMGWYRQAPGKEREFVAAISRSGGRTYYADSVKGRFTISRDNAKNTVYLQMNSLKPEDTAVYYCATVRRRLSLTYDYWGQGTQVTVSS”, the “polyreactivity (PSR sort gate)” value is reported as “high polyreactivity”.
With “QVQLVESGGGLVQAGGSLRLSCAASGSTLFLYAMGWYRQAPGKERELVAAITWSGGSTYYADSVKGRFTISRDNAKNTVYLQMNSLKPEDTAVYYCAKYGRYFWNSGVDYWGQGTQVTVSS” the “polyreactivity (PSR sort gate)” value was “high polyreactivity”.
With “QVQLVESGGGLVQAGGSLRLSCAASGSTLFTYAMGWYRQAPGKERELVAAITSSGSTYYADSVKGRFTISRDNAKNTVYLQMNSLKPEDTAVYYCAVPGYRYTKYYYWGQGTQVTVSS” the “polyreactivity (PSR sort gate)” value was “low polyreactivity”.
For “QVQLVESGGGLVQAGGSLRLSCAASGSTLGAYAMGWYRQAPGKERELVAAITYSTGSTYYADSVKGRFTISRDNAKNTVYLQMNSLKPEDTAVYYCAAATYQSRYFQRFDCWGQGTQVTVSS”, the “polyreactivity (PSR sort gate)” value was “high polyreactivity”.
For “QVQLVESGGGLVQAGGSLRLSCAASGSTLGGYAMGWYRQAPGKERELVASISWDDVRTYYADSVKGRFTISRDNAKNTVYLQMNSLKPEDTAVYYCAKGDIEYFWSRIYGYWGQGTQVTVSS”, the “polyreactivity (PSR sort gate)” value was “low polyreactivity”.
For “QVQLVESGGGLVQAGGSLRLSCAASGSTLGRNAMGWDRQAPGKEREFVAAITYSTGSTYYADSVKGRFTISRDNAKNTVYVQMNSLKPEDTAVYYCAKGRLTRGYVTFEYWGQGTQVTGSS”, the “polyreactivity (PSR sort gate)” value was “high polyreactivity”.
In the case of “QVQLVESGGGLVQAGGSLRLSCAASGSTLGYNAMGCYRQAPGKERELVAAIRGGDDDTYYADSVKGRFTISRDNAKNTVYLQMNSMNPEDTAVYYCATGDTSIPYSPPGGYDSWGQGTQVTVSS”, the “polyreactivity (PSR sort gate)” value is reported as “low polyreactivity”.
For “QVQLVESGGGLVQAGGSLRLSCAASGSTLGYYAMGWYRQAPGKERELVAAISKGGGSTYYADSVKGRFTISRDNAKNTVYLQMNSLKPEETAVYYCAAYSTSWSRYDYWGQGTQVTVSS”, the “polyreactivity (PSR sort gate)” value was “high polyreactivity”.
For “QVQLVESGGGLVQAGGSLRLSCAASGSTLHYYAMGWYRQAPGKERELVAAISATGGSTYYADSVKGRFTISRDNAKNTVYLQMNSLKPEDTAVYYCARTYRSHWVYTRLDYWGQGTQVTVSS”, the “polyreactivity (PSR sort gate)” value was “high polyreactivity”.
For “QVQLVESGGGLVQAGGSLRLSCAASGSTLIANAMGWYRQAPGKERELVAGITYRGGDITTYADSVKGRFTISRDNAKNTVYLQKTSLKPEDTAVYYCAARVVWPTWARGGYWGQGTQVTVSS”, the “polyreactivity (PSR sort gate)” value was “low polyreactivity”.
With “QVQLVESGGGLVQAGGSLRLSCAASGSTLKRYAMGWYRQAPGKERELVARISRIGGSTFYADSVKGRFTISRDNAKNTVYLQMNSLNPEDTAVYYCAAVPLHYVYRADQAYYRYNYWGQGTQVTVSS” the “polyreactivity (PSR sort gate)” value was “high polyreactivity”.
For “QVQLVESGGGLVQAGGSLRLSCAASGSTLKYNAMGWYRQAPGKEREFVASITLSAGRTYYADSVKGRFTISRDNAKNTVYLQMNSLKPEDTAVYYCAARRYFSYRYDYWGQGTQVTVSS”, the “polyreactivity (PSR sort gate)” value was “high polyreactivity”.
In the case of “QVQLVESGGGLVQAGGSLRLSCAASGSTLKYYAMGRYRQAPGKEMELVAAIRNLGGRTYYADSVKGRFTISRDNAKNTVYLQMNSLKPEDTAVYYCAAQFQSTAVGRDNYWGQGTQVTVSS”, the “polyreactivity (PSR sort gate)” value is reported as “high polyreactivity”.
For “QVQLVESGGGLVQAGGSLRLSCAASGSTLLANAMGWYRQAPGKERELVATITNSGGGTYYADSVKGRFTISRDNAKNTVYLQMNSLKPEDTAVYYCAAVYTGRSQYSKWRYEYWGQGTQVTVSS”, the “polyreactivity (PSR sort gate)” value was “low polyreactivity”.
For “QVQLVESGGGLVQAGGSLRLSCAASGSTLLYYAMGWYRQAPGKERELVAAINKSGGRTYYADSVKGRFTISRDNAKNTVYLQMNSLKPEDTAVYYCAVDISVTGSSNRYGYWGQGTQVTVSS”, the “polyreactivity (PSR sort gate)” value was “high polyreactivity”.
In the case of “QVQLVESGGGLVQAGGSLRLSCAASGSTLNRNVMGSYRQAPGKERELVAVITYGVGSTYYADSVKGRFTISRDNAKNTVYLQLNSLKPEDTAVYYCNKDPLVFDYWGQGTQVTVSS”, the “polyreactivity (PSR sort gate)” value is reported as “low polyreactivity”.
In the case of “QVQLVESGGGLVQAGGSLRLSCAASGSTLNRYAMGWYRQAPGKERELVAAISISGGRTYYADSVKGRFTISRDNAKNTVYLQMNSLKPEDTAVYYCADGNYLYSYGYGYWGQGTQVTVSS”, the “polyreactivity (PSR sort gate)” value is reported as “high polyreactivity”.
In the case of “QVQLVESGGGLVQAGGSLRLSCAASGSTLQVNAMGWYRQAPGKETELVATISFSGGSTYYADSVKGRFTISRDNAMNTVYLQMNSLKPEETAAYYCNADSFVSWYNQFWYQATYDYWGQGTKVTVSS”, the “polyreactivity (PSR sort gate)” value is reported as “low polyreactivity”.
In the case of “QVQLVESGGGLVQAGGSLRLSCAASGSTLRAYAMGWYRQAPGKDRELVAAISGRGGRTYYADSVKGRFTISRDNAKNTVYLQMNSLKPEDTAVYYCATRYREPYVWPYDYWGRGTQVTVSS”, the “polyreactivity (PSR sort gate)” value is reported as “high polyreactivity”.
In the case of “QVQLVESGGGLVQAGGSLRLSCAASGSTLRGNAMGWYRQAPGKEREFVAAISSSGGRTYYADSVKGRFTISRDNAKNTVYLQMNSLKPEDTAVYYCNADPYNYSRRYRLRKYGYWGQGTQVTVSS”, the “polyreactivity (PSR sort gate)” value is reported as “high polyreactivity”.
With “QVQLVESGGGLVQAGGSLRLSCAASGSTLRHNVMGWYRQAPGKERELVAAITFSGGSTTYADSVKGRFTISRDNAKNTVYLQMNSLKPEDTAVYYCNAVYAGAGSFHPGYGYWGQGTQVTVSS” the “polyreactivity (PSR sort gate)” value was “low polyreactivity”.
In the case of “QVQLVESGGGLVQAGGSLRLSCAASGSTLRRYAMGWYRQAPGKERELVAAITYRSGSTYYADSVKGRFTISRDNAKNTVYLQMNSLKPEDTAVYYCAKVGYVSKYWFAGDYWGQGTQVTVSS”, the “polyreactivity (PSR sort gate)” value is reported as “high polyreactivity”.
With “QVQLVESGGGLVQAGGSLRLSCAASGSTLRSYVMGWYRQAPGKERELVAAISIRGDSTYYADSVKGRFTISRDNAKNTVYLQMNSLKPEDTAVYYCAAASNRYPNSWYYYWGQGTQVTVSS” the “polyreactivity (PSR sort gate)” value was “high polyreactivity”.
In the case of “QVQLVESGGGLVQAGGSLRLSCAASGSTLRYYAMGWYRQAPGKEREWVAAISTGGSTYYADSVKGRFTISRDNAKKTVYLQMHSLKPEDTAVYYCAAEPWANTPGEAGSPFDYWGQGTQVTVSS”, the “polyreactivity (PSR sort gate)” value is reported as “low polyreactivity”.
With “QVQLVESGGGLVQAGGSLRLSCAASGSTLSDNAMGWYRQAPGKERELVASISWSGGTYYADSVKGRFTISRDNAKNTVYLQMNSLKPEDTAVYYCAAYIYYNYSRQYWFDYWGQGTQVTVSS” the “polyreactivity (PSR sort gate)” value was “low polyreactivity”.
In the case of “QVQLVESGGGLVQAGGSLRLSCAASGSTLSEYAMGWYRQAPGKERELVAAISWSGGSTYYADSVKGRFTISRDNAKNTVYLQMNSLKPEDTAVYDCAAKRYSSKRGLDYWGQGTHVTVSS”, the “polyreactivity (PSR sort gate)” value is reported as “high polyreactivity”.
In the case of “QVQLVESGGGLVQAGGSLRLSCAASGSTLSLYAMGWSRQAPGKERELVAAITSSGGTYYADSVKGRFTISRDNAKNTVYLQMNSLKPEDTADYYCARSRYRAQGKFDYWGQGTQVTVSS”, the “polyreactivity (PSR sort gate)” value is reported as “high polyreactivity”.
With “QVQLVESGGGLVQAGGSLRLSCAASGSTLSQNAMGWYRQAPGKEREFVADISGAGDSTYYADSVKGRFTISRDNAKNTVYLQMISLKPDDTAVYYCATPSPHVGLKWEYDYWGQGTQVTVSS” the “polyreactivity (PSR sort gate)” value was “low polyreactivity”.
For “QVQLVESGGGLVQAGGSLRLSCAASGSTLSVNAMGWYRPAPGKERELVAAIDFDGGDTYYADSVKGRFTISRDNAKNNVYLQMNSLKPEDTAVYYCAADIGGQYDYLADDYWGQGTQVTVSS”, the “polyreactivity (PSR sort gate)” value was “low polyreactivity”.
For “QVQLVESGGGLVQAGGSLRLSCAASGSTLSYNAMGWYRQAPGKERELVAAISGRGGSTSYADSVKGRFTISRDNAKNTVYLQMNSLKPEDTAVYYCNRYSRSAYEWEYYSWGQGTQVTVSS”, the “polyreactivity (PSR sort gate)” value was “high polyreactivity”.
With “QVQLVESGGGLVQAGGSLRLSCAASGSTLSYYAMGWYRQAPGKERELVAAISFSGGITYYADSVKGRFTISRDNAKNTVYLQMNSLKPEDTAVYYCNAEYQVYRAYVIWYDYWGQGTQVTVSS” the “polyreactivity (PSR sort gate)” value was “high polyreactivity”.
